Entries after “also recorded” stand apart in the source; their conditions may differ.
What was measured:
[1] = system: human induced pluripotent stem cells (iPSCs); test: Differentiation of iPSCs towards primitive streak (PS)-like mesendoderm (morphology, qPCR); format: cell-based
Method: BJC1-iPSCs were differentiated towards primitive streak-like mesendoderm cells for 2 days with indicated combination of CHIR99021 (3 μM) and FGF (20 ng/ml) in conjunction with the indicated signaling perturbations, qPCR was performed at day 2. […] FIG. 9C represents data from FACS analysis showing more than 97% cells at day 2 were positive for primitive streak genes MIXL1, Brachyury (T) and GSC. FIG. 9D represents the immunofluoresence results at day 2 showing the expression of MIXL1, Brachyury (T) and GSC after 2 day of primitive streak induction.
iPSCs from MRCS or BJ cell lines, or hESCs were differentiated into primitive streak-like mesendoderm cells and primitive streak mesendoderm cells respectively. Feeder-free iPSCs were maintained in mTeSR (Stem Cell Technologies) before differentiation. To differentiate iPSCs, iPSCs were digested with 1 mg/ml collagenase IV for 5-10 min at 37° C. into small clumps and placed on a fibronectin (FN, 10 μg/ml)-coated surface in medium containing activin A (25 ng/ml) and CHIR99021 (3 μM) for 1 day in a basal medium (DMEM: F12, 1% ITS, 2% B27, 2 mM L-Glutamine, 90 uM ß-mercaptoethanol), followed by Activin A (25 ng/ml), CHIR99021 (3 μM) and FGF (20 ng/ml) for subsequent 24 hours to differentiate toward primitive streak (PS)-like mesendoderm.
Quantitative real-time PCR was performed with Taqman expression assay using ABI PRISM 7900HT sequence Detection System (Applied Biosystems). Briefly, […] of total RNA was converted to cDNA using high capacity cDNA archive kit in 30 μl and then diluted to 500 μl. Quantitative real-time PCR was done as follows: initial denaturation for 2 min at 50° C., 10 min at 95° C., following 40 cycles of PCR (95° C. for 15 s, 60° C. for 1 min) by using 5 μl of 2× Master mix, 0.5 μl of probe and 4.5 μl of cDNA. All probes were designed with a 5′ fluoregenic 6-carboxylfluorescein, and a 3′ quencher, tetramethyl-6-carboxyrhodamine. The expression of human GAPDH was used to normalize gene expression levels.

[2] = system: BJC1-iPSCs; test: Differentiation of PS-like mesendoderm towards lateral plate-like mesoderm (qPCR, cell number at day 10); format: cell-based, human
Method: BJC1-iPSCs were differentiated towards mesoderm after 8 days of differentiation with indicated combination of FGF (20 ng/ml), Rock inhibitor Y27632 (5 uM) and Follistatin (100 ng/ml) in conjunction with the indicated signaling perturbations, qPCR was performed at day 10. […] BJC1-iPSCs were differentiated towards mesoderm after 8 days of differentiation with indicated combination of FGF (20 ng/ml), BMP4 (40 ng/ml), and Rock inhibitor Y27632 (5 uM) in conjunction with the indicated signaling perturbations, qPCR was performed at day 10. […] Mesoderm differentiation was induced with FGF (20 ng/ml), BMP4 (40 ng/ml), rock inhibitor Y27632 (5 μM, only used at the time of passage and remove the next day) and follistatin (100 ng/ml) for 8 days. Quantitative real-time PCR was performed with Taqman expression assay using ABI PRISM 7900HT sequence Detection System (Applied Biosystems). Briefly, […] of total RNA was converted to cDNA using high capacity cDNA archive kit in 30 μl and then diluted to 500 μl. Quantitative real-time PCR was done as follows: initial denaturation for 2 min at 50° C., 10 min at 95° C., following 40 cycles of PCR (95° C. for 15 s, 60° C. for 1 min) by using 5 μl of 2× Master mix, 0.5 μl of probe and 4.5 μl of cDNA. All probes were designed with a 5′ fluoregenic 6-carboxylfluorescein, and a 3′ quencher, tetramethyl-6-carboxyrhodamine. The expression of human GAPDH was used to normalize gene expression levels.

[3] = compared with wnt3a (ACF vs AWF)
[4] = with FGF 20 ng/ml, BMP4 40 ng/ml, Y27632 5 uM, qPCR at day 10

## FGF: fibroblast growth factor; in one specific example FGF2
[1]; addition of FGF at day 2
  differentiation toward PS-like mesendoderm: did not further enhance differentiation toward PS-like mesendoderm
[1]; in the presence of FGF at day 2
  expression of mesoderm: expression of mesoderm increased

## C[C@@H](N)[C@H]1CC[C@H](C(=O)Nc2ccncc2)CC1.Cl.Cl [Y27632, (R)-(+)-trans-4-(1-Aminoethyl)-N-(4-Pyridyl)cyclohexanecarboxamide dihydrochloride, reference compound]
[2]; compared to NT4, dihydrochloride
  expression of lateral plate mesoderm genes Hand1 and FOXF1: increased the expression of lateral plate mesoderm genes Hand1 and FOXF1; also recorded: significantly increases the expression of lateral plate mesoderm genes
[2]; compared with neurotrophi-4 (NT), day 10
  increase in cell number: 3.53±1.56 fold

## Cc1cnc(-c2cnc(NCCNc3ccc(C#N)cn3)nc2-c2ccc(Cl)cc2Cl)[nH]1 [CHIR99021, 6-[2-[[4-(2,4-dichlorophenyl)-5-(5-methyl-1H-imidazol-2-yl)pyrimidin-2-yl]amino]ethylamino]pyridine-3-carbonitrile, reference compound]
[1]; [3]
  adherence of iPSCs to the dish: promoted the adherence of iPSCs to the dish
  differentiation toward PS-like mesendoderm: promoted differentiation toward PS-like mesendoderm

B1: BMP4: bone morphogenetic protein (protein, UniProt P12644 293-408, looked up)
Bone morphogenetic protein 4: SPKHHSQRARKKNKNCRRHSLYVDFSDVGWNDWIVAPPGYQAFYCHGDCPFPLADHLNSTNHAIVQTLVNSVNSSIPKACCVPTELSAISMLYLDEYDKVVLKNYQEMVVEGCGCR
[2]; with FGF 20 ng/ml, Y27632 5 uM, Follistatin 100 ng/ml, qPCR at day 10
  BMP4 concentration that led to the highest expression of lateral plate mesoderm markers: 40 ng/mL

B2: activin A: Activin A formed by two activin βA subunits, member of the TGF-β superfamily (protein, UniProt P08476 311-426, looked up)
Inhibin beta A chain: GLECDGKVNICCKKQFFVSFKDIGWNDWIIAPSGYHANYCEGECPSHIAGTSGSSLSFHSTVINHYRMRGHSPFANLKSCCVPTKLRPMSMLYYDDGQNIIKKDIQNMIVEECGCS
modifications: Inhibin beta A chain
[1]; activin 25-100 ng/ml with CHIR99021 3 μM and FGF 20 ng/ml, qPCR at day 2
  differentiation towards PS-like mesendoderm expressing T, MIXL1 and GSC: enhanced differentiation towards PS-like mesendoderm
[1]; activin 25-100 ng/ml, qPCR at day 2
  expression of endodermal marker Sox17: increased with the dose
[1]; qPCR at day 2
  activin A concentration at which the ratio of increased MIXL1 or T to Sox17 was the highest: 25 ng/mL

B3: noggin: antagonism of BMP signaling (protein, UniProt Q13253 28-232, looked up)
Noggin: QHYLHIRPAPSDNLPLVDLIEHPDPIFDPKEKDLNETLLRSLLGGHYDPGFMATSPPEDRPGGGGGAAGGAEDLAELDQLLRQRPSGAMPSEIKGLEFSEGLAQGKKQRLSKKLRRKLQMWLWSQTFCPVLYAWNDLGSRFWPRYVKVGSCFSKRSCSVPEGMVCKPSKSVHLTVLRWRCQRRGGQRCGWIPIQYPIISECKCSC
[2]; in the absence of BMP4 or in the presence of noggin, qPCR at day 10
  expression of ectodermal gene Sox1: 38.65 fold

B4: follistatin: protein encoded by the FST gene (protein, UniProt P19883 30-344, looked up)
Follistatin: GNCWLRQAKNGRCQVLYKTELSKEECCSTGRLSTSWTEEDVNDNTLFKWMIFNGGAPNCIPCKETCENVDCGPGKKCRMNKKNKPRCVCAPDCSNITWKGPVCGLDGKTYRNECALLKARCKEQPELEVQYQGRCKKTCRDVFCPGSSTCVVDQTNNAYCVTCNRICPEPASSEQYLCGNDGVTYSSACHLRKATCLLGRSIGLAYEGKCIKAKSCEDIQCTGGKKCLWDFKVGRGRCSLCDELCPDSKSDEPVCASDNATYASECAMKEAACSSGVLLEVKHSGSCNSISEDTEEEEEDEDQDYSFPISSILEW
[2]; presence compared to absence of Follistatin, qPCR at day 10
  expression of lateral plate mesoderm genes Hand1 and FOXF1 and mesenchymal stem cell genes CD44 and CD105: significantly increases the expression
[2]; [4]
  endodermal differentiation Sox17 and FOXA1: inhibited endodermal differentiation
  mesodermal differentiation: promoting mesodermal differentiation

— patent US11180733B2, “Method of generating mesenchymal stem cells and uses thereof” (AGENCY FOR SCIENCE, TECHNOLOGY AND RESEARCH, priority 2016, dated 2021)
